Here are results for three molecules from patent US20170184612A1, “USE OF LEUKOCYTES AND NOVEL BIOMARKERS IN THE DIAGNOSIS, CONFIRMATION, AND TREATMENT OF A NEUROLOGICAL DISORDER” (The Trustees of Columbia University in the City of New York, priority 2014, published 2017).

For one assay, the system named is VM DA (TH+) neurons. Briefly: Antigen processing and presentation, […]-MHC-I immunolabel. It counts as cell-based, mouse. To be noted: OVA 7 days, then IFN-γ 72 h. The method, then: Following exposure of SN neuronal cultures to OVA or vehicle for 7 days, neurons were exposed to IFN-γ or saline for 72 h (note that these cultures were never exposed to […] (SEQ ID NO: 9)). The cultures were then double immunolabeled for TH and an antibody that recognizes only the MHC-I complex when is occupied by […] (SEQ ID NO: 9) ([…]-MHC-I). Occasional label of astrocytes, but not neurons, for […]-MHC-I was observed when the cultures were exposed to the vehicle, IFN-γ, or OVA alone (FIG. 5A). […] The results herein indicate that OVA had been processed to […] (SEQ ID NO: 9) within these mixed neuron/astrocyte cultures and loaded into the MHC-I groove within neuronal cytosol, and that the resulting complex was presented on the neuronal plasma membrane.
IFN-γ (R&D Systems) was used at a range of non-toxic concentrations for neurons or OT-1 cells (10 μg/ml-100 ng/ml, 72h). […]
(§1) Images were captured using a Leica SP5 microscope system. There was no fluorescence bleed-through of secondary antibodies under the conditions used. […]
(§2) In order to assess the proportion of TH^+ and MAP-2^+ neurons that expressed MHC-I^+, first TH^+ and MAP-2^+ neurons were counted in 24 fields surrounding the border of the well at 20× magnification. The number of TH^+ or MAP-2^+ neurons with intact soma and two or more neurites equal to or greater than the diameter of the cell soma was counted. […]

Assay [1] relates to hES derived DA neuronal cultures. Briefly: MHC-I induction in hES-derived DA neurons, immunofluorescence. The format is cell-based, human. The following applies: 100 ng/ml, 72h. The method, then: (§3) hES derived DA neuronal cultures were obtained as described (Kriks et al., 2011). Briefly, H9 human ES cells were subjected to dual SMAD-inhibition followed by exposure to sonic hedgehog, purmorphamine, FGF8 and CHIR99021. Neurons were passaged on day 20, replated on glass-bottom dishes on day 30 at a density of 200.000 cells per 20 μl droplet, and then matured in Neurobasal media with the addition of B27 supplement, GDNF, BDNF, ascorbic acid, cAMP, TGFbeta and DAPT. hES derived spinal motor neuron (MN) cultures expressing EYFP under control of the human synapsin promoter were generated by exposure to dual SMAD-inhibition followed by caudalization with retinoid acid and ventralization through the hedgehog pathway. MN aggregates were replated on day 20 and matured in Neurobasal media with the addition of B27 supplement, GDNF, BDNF, ascorbic acid, cAMP and DAPT.
(§4) Cultures were treated with human IFN-γ (eBioscience) at a non-toxic concentration for hES (100 ng/ml, 72h). Cultures were then incubated with the MHC-I antibody prior to fixation in 4% paraformaldehyde and double immunofluorescence for TH and MHC-I as above. Micrographs were acquired using a Leica TCS SP5-II inverted confocal microscope.

For assay [2], the system named is hES derived spinal motor neuron (MN) cultures. In words: MHC-I induction in hES-derived motor neurons, immunofluorescence. The format is cell-based, human. To be noted: 100 ng/ml, 72h. The method, then:
as §3, §4

For assay [3], the system named is primary TH+ neurons (SN, VTA, LC). In words: MHC-I induction in murine primary catecholamine neurons, immunofluorescence. The format is cell-based, mouse.
Text: To study the mechanisms underlying the preferential display of MHC-I by catecholamine neurons, primary neuronal cultures of >7 days in vitro prepared from 0-3 day old C57BL/6 mice were examined in the studies herein (Sulzer et al., 2008). DA neurons from VTA and SN and NE neurons of the LC were identified by immunolabel for TH. MHC-I staining was examined using an antibody raised against the H-2K^b and H-2D^b class I mouse alloantigens.
B6.129P2-B2m^tm1Unc/J mice were generated by a targeted disruption of the β2m gene, and have little or no MHC-I protein expression on the cell surface^68. […]
as §1, §2

B1: OVA: chicken OVA, a 385 amino acid foreign protein (protein, UniProt P01012 2-386, looked up)
Ovalbumin: GSIGAASMEFCFDVFKELKVHHANENIFYCPIAIMSALAMVYLGAKDSTRTQINKVVRFDKLPGFGDSIEAQCGTSVNVHSSLRDILNQITKPNDVYSFSLASRLYAEERYPILPEYLQCVKELYRGGLEPINFQTAADQARELINSWVESQTNGIIRNVLQPSSVDSQTAMVLVNAIVFKGLWEKAFKDEDTQAMPFRVTEQESKPVQMMYQIGLFRVASMASEKMKILELPFASGTMSMLVLLPDEVSGLEQLESIINFEKLTEWTSSNVMEERKIKVYLPRMKMEEKYNLTSVLMAMGITDVFSSSANLSGISSAESLKISQAVHAAHAEINEAGREVVGSAEAGVDAASVSEEFRADHPFLFCIKHIATNAVLFFGRCVSP
With B1, the “TH+ neurons immunolabeled for SIINFEKL-MHC-I” value with VM DA (TH+) neurons is listed as about 10%.

B2: human IFN-γ: human IFN-γ (eBioscience), proinflammatory cytokine (protein, UniProt P01579 24-161, looked up)
Interferon gamma: QDPYVKEAENLKKYFNAGHSDVADNGTLFLGILKNWKEESDRKIMQSQIVSFYFKLFKNFKDDQSIQKSVETIKEDMNVKFFNSNKKKRDDFEKLTNYSVTDLNVQRKAIHELIQVMAELSPAAKTGKRKRSQMLFRG
For B2, the “plasma membrane expression of MHC-I by TH+ neurons” value in assay [1] was “virtually all TH+ neurons”. Moreover, the “MHC-I expression in mature motor neurons” value in assay [2] is recorded as “no MHC-I expression was observed”.

B3: IFN-γ: recombinant mouse IFN-γ (R&D Systems) (protein)
chain: HGTVIESLESLNNYFNSSGIDVEEKSLFLDIWRNWQKDGDMKILQSQIISFYLRLFEVLKDNQAISNNISVIESHLITTFFSNSKAKKDAFMSIAKFEVNNPQVQRQAFNELIRVVHQLLPESSLRKRKRSRC
For the molecule B3, the “MHC-I (H-2Kb and H-2Db) immunolabel” value in assay [3] (neurons from β2m deficient (MHC-I null, KO) mice) is reported as “did not induce MHC-I”. In addition, the “plasma membrane MHC-I expression on TH+ neurons” value in assay [3] (wild type C57BL/6 neurons) is “induced robust plasma membrane neuronal MHC-I expression”.
